Measured values: IntAct's records for PubMed 17229891

Target: 1433b_human YWHAB (UniProt P31946)
Sequence of UniProt P31946 (P31946 whole entry): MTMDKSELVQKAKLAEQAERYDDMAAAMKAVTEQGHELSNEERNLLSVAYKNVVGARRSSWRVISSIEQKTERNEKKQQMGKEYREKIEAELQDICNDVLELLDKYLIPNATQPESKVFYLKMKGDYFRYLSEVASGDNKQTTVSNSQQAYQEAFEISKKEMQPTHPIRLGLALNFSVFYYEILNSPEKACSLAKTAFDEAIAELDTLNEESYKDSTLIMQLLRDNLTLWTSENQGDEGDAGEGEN

Dual specificity tyrosine-phosphorylation-regulated kinase 1A (Homo sapiens) (from UniProt Q13627-2) S520A
effect of a mutation on the interaction: decreasing interaction
